The text below walks through data of publication PMC6849236.

In test [1] the target is CBM3-CtCoh-CcsCoh-RfCoh synthetic mini-scaffoldin (C. thermocellum ATCC 27405 | C. cellulovorans ATCC 35296 | R. flavefaciens).
Test [2] has the same target. Put plainly: pull-down; RAC pull-down: cell lysate supernatants of dockerin-containing enzymes (in slight excess) mixed with 0.5 mL cell lysate supernatant of CBM3-Scaf3, 2 mg RAC added, room temperature 5 min; RAC pellet washed three times in 100 mM HEPES pH 7.5, 50 mM NaCl, 1 mM CaCl2; 12% SDS-PAGE, band intensities.

Sequence of CDP-CtDoc (A3DH67 whole entry): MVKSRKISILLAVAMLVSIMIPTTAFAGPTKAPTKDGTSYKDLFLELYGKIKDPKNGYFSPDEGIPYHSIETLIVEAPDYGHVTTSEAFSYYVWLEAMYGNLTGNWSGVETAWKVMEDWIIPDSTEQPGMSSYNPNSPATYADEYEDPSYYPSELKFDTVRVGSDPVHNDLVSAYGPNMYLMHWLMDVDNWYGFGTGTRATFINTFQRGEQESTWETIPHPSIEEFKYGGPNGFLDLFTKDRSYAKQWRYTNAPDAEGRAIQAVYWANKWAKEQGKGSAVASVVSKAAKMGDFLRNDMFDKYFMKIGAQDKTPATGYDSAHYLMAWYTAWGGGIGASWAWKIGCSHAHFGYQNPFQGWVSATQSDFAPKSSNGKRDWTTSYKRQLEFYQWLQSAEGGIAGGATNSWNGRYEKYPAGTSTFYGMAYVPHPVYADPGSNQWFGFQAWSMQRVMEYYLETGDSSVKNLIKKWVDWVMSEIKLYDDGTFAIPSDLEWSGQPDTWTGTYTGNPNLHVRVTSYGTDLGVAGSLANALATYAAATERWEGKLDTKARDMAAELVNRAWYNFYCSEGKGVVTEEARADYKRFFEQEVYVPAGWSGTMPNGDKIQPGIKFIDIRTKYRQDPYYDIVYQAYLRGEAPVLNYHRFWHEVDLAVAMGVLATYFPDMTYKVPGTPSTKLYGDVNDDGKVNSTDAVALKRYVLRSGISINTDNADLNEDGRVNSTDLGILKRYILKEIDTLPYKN

Substance “PGM-RfDoc (from UniProt Q9AE53 787-879) (enzyme)” had a specific activity of RAC immobilized CBM3-Scaf3/PGM-RfDoc; 0.5 mL cell lysate supernatant of CBM3-Scaf3 mixed with PGM-RfDoc supernatant, highest at 2 mL in test [1] of 22.4 U mL^−1. The stoichiometry N (commonly a count of units in the complex or per binding partner) in test [2] worked out at 1.
On to PGM-CcsDoc (enzyme), for which the specific activity of RAC immobilized CBM3-Scaf3/PGM-CcsDoc; 0.5 mL cell lysate supernatant of CBM3-Scaf3 mixed with PGM-CcsDoc supernatant, highest at 2 mL in test [1] is 23 U mL^−1. The stoichiometry N in test [2] worked out at 1.
As for “CDP-RfDoc (from UniProt Q9AE53 787-879) (enzyme)”, the specific activity of RAC immobilized CBM3-Scaf3/CDP-RfDoc; 0.5 mL cell lysate supernatant of CBM3-Scaf3 mixed with CDP-RfDoc supernatant, highest at 2 mL in test [1] was 0.71 U mL^−1. Further, the stoichiometry N in test [2] turned out to be 1.
For “CDP-CtDoc (from UniProt A3DH67 673-741) (enzyme)”, the specific activity of RAC immobilized CBM3-Scaf3/CDP-CtDoc; 0.5 mL cell lysate supernatant of CBM3-Scaf3 mixed with different volumes of CDP-CtDoc supernatant, highest at 1 mL, no increase with excess in test [1] came to 0.72 U mL^−1. The substance also yielded a stoichiometry N in test [2] of 1.
